Results: patent US20220143136A1, “USE OF ANNEXINS IN PREVENTING AND TREATING MUSCLE MEMBRANE INJURY” (NORTHWESTERN UNIVERSITY, priority 2018, published 2022)
Changes are numbered by the printed parent chain. Numbers in names are those of the source.

B1: annexin A2: annexin A2 with carboxyl-terminal turboGFP or tdTomato tag, expressed from plasmid in myofibers (protein, UniProt P07356 2-339, looked up)
Annexin A2: STVHEILCKLSLEGDHSTPPSAYGSVKPYTNFDAERDALNIETAVKTKGVDEVTIVNILTNRSNVQRQDIAFAYQRRTKKELPSALKSALSGHLETVILGLLKTPAQYDASELKASMKGLGTDEDSLIEIICSRTNQELQEINRVYKEMYKTDLEKDIISDTSGDFRKLMVALAKGRRAEDGSVIDYELIDQDARELYDAGVKRKGTDVPKWISIMTERSVCHLQKVFERYKSYSPYDMLESIKKEVKGDLENAFLNLVQCIQNKPLYFADRLYDSMKGKGTRDKVLIRIMVSRSEVDMLKIRSEFKRKYGKSLYYYIQQDTKGDYQKALLYLCGGDD
modifications: C-terminal turboGFP or tdTomato tag
notes: annexin A2 with carboxyl-terminal turboGFP or tdTomato tag, expressed from plasmid in myofibers
B2: annexin A1: annexin A1 with carboxyl-terminal turboGFP or tdTomato tag, expressed from plasmid in myofibers (protein, UniProt P10107 2-346, looked up)
Annexin A1: AMVSEFLKQARFLENQEQEYVQAVKSYKGGPGSAVSPYPSFNVSSDVAALHKAIMVKGVDEATIIDILTKRTNAQRQQIKAAYLQENGKPLDEVLRKALTGHLEEVVLAMLKTPAQFDADELRGAMKGLGTDEDTLIEILTTRSNEQIREINRVYREELKRDLAKDITSDTSGDFRKALLALAKGDRCQDLSVNQDLADTDARALYEAGERRKGTDVNVFTTILTSRSFPHLRRVFQNYGKYSQHDMNKALDLELKGDIEKCLTTIVKCATSTPAFFAEKLYEAMKGAGTRHKALIRIMVSRSEIDMNEIKVFYQKKYGISLCQAILDETKGDYEKILVALCGGN
modifications: C-terminal turboGFP or tdTomato tag
notes: annexin A1 with carboxyl-terminal turboGFP or tdTomato tag, expressed from plasmid in myofibers
B3: A6D149A: annexin A6 D149A mutant, plasmid expressed (protein, UniProt P14824 2-673, looked up, variant D149A)
Annexin A6: AKIAQGAMYRGSVHDFPEFDANQDAEALYTAMKGFGSDKESILELITSRSNKQRQEICQNYKSLYGKDLIEDLKYELTGKFERLIVNLMRPLAYCDAKEIKDAISGVGTDEKCLIEILASRTNEQMHQLVAAYKDAYERDLESDIIGATSGHFQKMLVVLLQGTRENDDVVSEDLVQQDVQDLYEAGELKWGTDEAQFIYILGNRSKQHLRLVFDEYLKTTGKPIEASIRGELSGDFEKLMLAVVKCIRSTPEYFAERLFKAMKGLGTRDNTLIRIMVSRSELDMLDIREIFRTKYEKSLYSMIKNDTSGEYKKALLKLCGGDDDAAGQFFPEAAQVAYQMWELSAVSRVELKGTVCAANDFNPDADAKALRKAMKGIGTDEATIIDIVTHRSNAQRQQIRQTFKSHFGRDLMADLKSEISGDLARLILGLMMPPAHYDAKQLKKAMEGAGTDEKTLIEILATRTNAEIRAINEAYKEDYHKSLEDALSSDTSGHFRRILISLATGNREEGGENRDQAQEDAQVAAEILEIADTPSGDKTSLETRFMTVLCTRSYPHLRRVFQEFIKKTNYDIEHVIKKEMSGDVKDAFVAIVQSVKNKPLFFADKLYKSMKGAGTDEKTLTRVMVSRSEIDLLNIRREFIEKYDKSLHQAIEGDTSGDFMKALLALCGGED
modifications: GFP tag
notes: annexin A6 D149A mutant, plasmid expressed
B4: annexin A1 D171A: Ca2+-binding mutant of annexin A1 (D171A), plasmid expressed (protein, UniProt P10107 2-346, looked up, variant D171A)
Annexin A1: B2 Annexin A1 with D170A
modifications: GFP tag
B5: A2D161A: Ca2+-binding mutant of annexin A2 (D161A), plasmid expressed (protein, UniProt P07356 2-339, looked up, variant D161A)
Annexin A2: B1 Annexin A2 with D161A
modifications: GFP tag

Experiments:
myofibers [1] = assay: Bleb formation and intracellular Ca2+ fluorescence (GCaMP5G, Fluo-4) after laser injury with annexin overexpression; assay type: cell-based, mouse; details: for internal GCaMP5G Ca2+ fluorescence at the site of injury: vs GCaMP5G alone
Experimental: (§1) Electroporation, myofiber isolation, laser injury, cap and vesicle measurement. Flexor digitorum brevis (FDB) fibers were transfected with endo-free plasmid DNA by in vivo electroporation. Methods were described previously in (Demonbreun and McNally, 2015; Demonbreun et al., 2016b; DiFranco et al., 2009). Z-stack projections were acquired from consecutive acquisitions after the final time-lapse frame, approximately 4 minutes post damage, with a […] step size between slices. Z-stack renderings were constructed in FIJI. Measurement of the cap area and feret diameter were conducted from a single slice near the middle of the z-stack using FIJI imaging tools. Fibers expressing similar levels of tagged or GCaMP5G protein were compared. GCaMP5G Ca^2+ fluorescence was measured from the acquired timelapse images, using a standard rectangular ROI, placed inside the myofiber below the site of damage using FIJI. Fluorescence was expressed as F/F0. External vesicle number and GCaMP5G area were measured from endpoint z-stacks and max projection images using FIJI. Vesicles were considered external if they were found outside the sarcolemma assessed in brightfield and fluorescent channels. All measurements were acquired from myofibers isolated from at least n≥3 mice, n≥3 myofibers per mouse.
as §1, with “(Demonbreun A R, Quattrocelli M, Barefield D Y, Allen M V, Swanson K E,” for “(Demonbreun”, “McNally E M. An actin-dependent annexin complex mediates plasma membrane repair in muscle. The Journal of cell biology. 2016; 213(6):705-18; Demonbreun A R, and McNally E M. DNA Electroporation, Isolation and Imaging of Myofibers. Journal of visualized experiments: JoVE.” for “McNally,”, “106(106):e53551;” for “Demonbreun et al., 2016b;”, “M, Quinonez M, Capote J, and Vergara J. DNA transfection of mammalian skeletal muscles using in vivo electroporation. Journal of visualized experiments: JoVE. 2009; 32(32)).” for “et al., 2009).”
Calcium and pH indicator dye measurements. Wildtype FDBs were isolated and plated in Ringers on Matek glass-bottom dishes as described above. Twenty minutes prior to imaging, myofibers were loaded with Fluo-4 AM at 37° C. (F10489, ThermoFisher Scientific, Waltham, Mass.) or pHrodo AM (P35373, ThermoFisher Scientific, Waltham, Mass.) as described in the instruction manual. Fibers were rinsed once with Ringers then subsequently damaged and imaged on the Nikon A1R GaSP, as described above. Fluorescence intensity was measured using FIJI (NIH). phRodo change in fluorescence intensity was calculated as F/F0. Data was acquired from n=3 mice per experiment from multiple myofibers per mouse. […]

myofibers [2] = assay: Annexin repair cap formation after laser injury at multiple Ca2+ concentrations; assay type: cell-based, mouse; details: for Km1/2 (repair cap area as a function of Ca2+ concentration): Ca2+ 0-2 mM, modified Hill equation; for repair cap diameter (DMAX) / cap size of the co-expressed wildtype annexin of the same type: wildtype+mutant vs wildtype+wildtype co-electroporation (homotypic); for wildtype annexin A6 cap size with co-expressed mutant annexin A1 or A2: heterotypic co-expression
Experimental: as §1
Calcium kinetics. FDB muscle was electroporated and isolated as described above. Myofibers were damaged in Ringers solution with Ca^2+ concentrations of 2 mM, 1 mM, 0.5 mM, 0.25 mM, 0.175 mM, 0.1 mM, 0.050 mM, and 0 mM. EDTA was added as a Ca^2+ chelating agent in only in the 0 mM Ca^2+ Ringers. Myofibers were isolated directly into 2 mM, 1 mM and 0.5 mM Ringers for those experiments respectively. For experiments using less than 0.5 mM Ca^2+ myofibers were isolated in 0.5 mM Ca^2+ Ringers and then diluted with 0 mM EDTA-free Ca^2+ Ringers. For 0 mM experiments, myofibers were isolated in 0.5 mM Ca^2+ Ringers and then replaced with 0 mM Ca^2++EDTA Ringers just prior to imaging. Co-electroporation of wildtype annexin+wildtype annexin constructs was performed in one mouse foot, while the contralateral foot was co-electroporated with wildtype annexin+mutant annexin. All measurements were acquired from myofibers isolated from at least n≥2 mice, n≥3 myofibers per mouse at each Ca^2+ concentration. Area-Ca^2+ curves were fitted with a Hill Curve at Ca^2+ concentrations ranging from 0-2 mM. Kinetic parameters were calculated using Prism Graphpad.
as §1, with “(Demonbreun A R, Quattrocelli M, Barefield D Y, Allen M V, Swanson K E,” for “(Demonbreun”, “McNally E M. An actin-dependent annexin complex mediates plasma membrane repair in muscle. The Journal of cell biology. 2016; 213(6):705-18; Demonbreun A R, and McNally E M. DNA Electroporation, Isolation and Imaging of Myofibers. Journal of visualized experiments: JoVE.” for “McNally,”, “106(106):e53551;” for “Demonbreun et al., 2016b;”, “M, Quinonez M, Capote J, and Vergara J. DNA transfection of mammalian skeletal muscles using in vivo electroporation. Journal of visualized experiments: JoVE. 2009; 32(32)).” for “et al., 2009).”, “Vesicles were considered external if they were found outside the sarcolemma assessed in brightfield and fluorescent channels. All measurements were acquired from myofibers isolated from at least n≥3 mice, n≥3 myofibers per mouse.” left out

[3] = fluorescently tagged annexin expressed in myofibers

Molecule | internal GCaMP5G Ca2+ fluorescence at the site of injury (myofibers [1]; over 240 seconds of imaging) | Km1/2 (repair cap area as a function of Ca2+ concentration) (myofibers [2]; [3]) [mM] | repair cap diameter (DMAX) / cap size of the co-expressed wildtype annexin of the same type (myofibers [2]) | wildtype annexin A6 cap size with co-expressed mutant annexin A1 or A2 (myofibers [2]) | also measured
B1 | significant reduction | 0.067 |  |  | number of extracellular (GCaMP5G-positive) blebs at the membrane lesion (myofibers [1]; annexin overexpression vs annexin A1 overexpression or GCaMP5G alone): significantly more blebs; internal GCaMP5G Ca2+ fluorescence at the site of injury (myofibers [1]; first 20 seconds post injury): significant reduction; lowest Ca2+ concentration at which a discernable repair cap formed (myofibers [2]; [3]): 0.05 mM
B2 | significant reduction | 0.17 |  |  | 
B3 |  |  | little effect |  | 
B4 |  |  | significantly reduced | minimal effect | 
B5 |  |  | significantly reduced | minimal effect | 
